Assay results taken from patent US20060110789.

Legend:
[1] = molecular target: T1, (5)M3+TE (module 3 of DEBS with the N-terminal linker of module 5, fused to thioesterase), Q03132
T1 chain: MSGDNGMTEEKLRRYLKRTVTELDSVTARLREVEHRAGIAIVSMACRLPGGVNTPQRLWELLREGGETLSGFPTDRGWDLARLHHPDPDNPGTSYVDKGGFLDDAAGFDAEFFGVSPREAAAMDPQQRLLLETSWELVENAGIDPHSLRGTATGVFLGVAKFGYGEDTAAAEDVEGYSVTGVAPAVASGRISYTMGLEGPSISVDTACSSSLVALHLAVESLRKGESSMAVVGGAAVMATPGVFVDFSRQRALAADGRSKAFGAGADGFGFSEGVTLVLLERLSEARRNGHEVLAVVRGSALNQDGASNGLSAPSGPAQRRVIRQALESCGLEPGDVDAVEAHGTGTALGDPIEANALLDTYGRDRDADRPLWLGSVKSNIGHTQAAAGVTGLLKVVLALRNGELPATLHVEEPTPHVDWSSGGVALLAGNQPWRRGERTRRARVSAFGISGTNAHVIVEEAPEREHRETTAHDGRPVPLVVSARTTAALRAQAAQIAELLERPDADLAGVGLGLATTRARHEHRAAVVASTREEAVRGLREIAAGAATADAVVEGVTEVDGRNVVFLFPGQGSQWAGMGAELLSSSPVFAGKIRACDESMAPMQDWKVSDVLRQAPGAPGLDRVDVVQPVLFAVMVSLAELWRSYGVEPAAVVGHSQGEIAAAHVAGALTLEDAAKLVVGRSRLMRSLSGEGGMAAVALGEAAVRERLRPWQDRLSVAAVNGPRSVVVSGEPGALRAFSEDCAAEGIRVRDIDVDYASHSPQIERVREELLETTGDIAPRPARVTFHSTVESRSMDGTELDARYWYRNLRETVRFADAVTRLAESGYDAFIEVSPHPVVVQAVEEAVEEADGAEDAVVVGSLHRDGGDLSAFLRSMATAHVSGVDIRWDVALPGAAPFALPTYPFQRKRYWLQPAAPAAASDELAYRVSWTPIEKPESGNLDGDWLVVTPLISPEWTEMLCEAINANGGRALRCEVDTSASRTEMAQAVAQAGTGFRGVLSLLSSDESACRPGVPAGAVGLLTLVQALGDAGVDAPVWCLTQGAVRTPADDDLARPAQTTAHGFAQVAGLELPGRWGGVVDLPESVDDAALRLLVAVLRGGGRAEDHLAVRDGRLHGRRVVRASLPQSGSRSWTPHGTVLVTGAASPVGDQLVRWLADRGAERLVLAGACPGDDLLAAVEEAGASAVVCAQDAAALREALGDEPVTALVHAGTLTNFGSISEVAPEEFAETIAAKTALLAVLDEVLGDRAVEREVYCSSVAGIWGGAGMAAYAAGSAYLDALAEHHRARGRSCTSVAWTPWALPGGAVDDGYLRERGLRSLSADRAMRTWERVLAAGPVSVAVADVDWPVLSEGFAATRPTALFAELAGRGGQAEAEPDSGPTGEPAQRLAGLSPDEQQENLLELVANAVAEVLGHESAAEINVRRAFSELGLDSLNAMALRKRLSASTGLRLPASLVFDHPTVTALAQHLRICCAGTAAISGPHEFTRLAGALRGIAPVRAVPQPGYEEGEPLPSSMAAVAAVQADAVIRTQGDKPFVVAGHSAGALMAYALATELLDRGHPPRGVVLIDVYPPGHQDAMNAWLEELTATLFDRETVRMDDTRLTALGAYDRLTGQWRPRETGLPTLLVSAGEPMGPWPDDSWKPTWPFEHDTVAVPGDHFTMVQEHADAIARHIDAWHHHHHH

[2] = molecular target: T2, M3+TE (module 3 of DEBS with its own N-terminal linker, fused to thioesterase), Q03132
T2 chain: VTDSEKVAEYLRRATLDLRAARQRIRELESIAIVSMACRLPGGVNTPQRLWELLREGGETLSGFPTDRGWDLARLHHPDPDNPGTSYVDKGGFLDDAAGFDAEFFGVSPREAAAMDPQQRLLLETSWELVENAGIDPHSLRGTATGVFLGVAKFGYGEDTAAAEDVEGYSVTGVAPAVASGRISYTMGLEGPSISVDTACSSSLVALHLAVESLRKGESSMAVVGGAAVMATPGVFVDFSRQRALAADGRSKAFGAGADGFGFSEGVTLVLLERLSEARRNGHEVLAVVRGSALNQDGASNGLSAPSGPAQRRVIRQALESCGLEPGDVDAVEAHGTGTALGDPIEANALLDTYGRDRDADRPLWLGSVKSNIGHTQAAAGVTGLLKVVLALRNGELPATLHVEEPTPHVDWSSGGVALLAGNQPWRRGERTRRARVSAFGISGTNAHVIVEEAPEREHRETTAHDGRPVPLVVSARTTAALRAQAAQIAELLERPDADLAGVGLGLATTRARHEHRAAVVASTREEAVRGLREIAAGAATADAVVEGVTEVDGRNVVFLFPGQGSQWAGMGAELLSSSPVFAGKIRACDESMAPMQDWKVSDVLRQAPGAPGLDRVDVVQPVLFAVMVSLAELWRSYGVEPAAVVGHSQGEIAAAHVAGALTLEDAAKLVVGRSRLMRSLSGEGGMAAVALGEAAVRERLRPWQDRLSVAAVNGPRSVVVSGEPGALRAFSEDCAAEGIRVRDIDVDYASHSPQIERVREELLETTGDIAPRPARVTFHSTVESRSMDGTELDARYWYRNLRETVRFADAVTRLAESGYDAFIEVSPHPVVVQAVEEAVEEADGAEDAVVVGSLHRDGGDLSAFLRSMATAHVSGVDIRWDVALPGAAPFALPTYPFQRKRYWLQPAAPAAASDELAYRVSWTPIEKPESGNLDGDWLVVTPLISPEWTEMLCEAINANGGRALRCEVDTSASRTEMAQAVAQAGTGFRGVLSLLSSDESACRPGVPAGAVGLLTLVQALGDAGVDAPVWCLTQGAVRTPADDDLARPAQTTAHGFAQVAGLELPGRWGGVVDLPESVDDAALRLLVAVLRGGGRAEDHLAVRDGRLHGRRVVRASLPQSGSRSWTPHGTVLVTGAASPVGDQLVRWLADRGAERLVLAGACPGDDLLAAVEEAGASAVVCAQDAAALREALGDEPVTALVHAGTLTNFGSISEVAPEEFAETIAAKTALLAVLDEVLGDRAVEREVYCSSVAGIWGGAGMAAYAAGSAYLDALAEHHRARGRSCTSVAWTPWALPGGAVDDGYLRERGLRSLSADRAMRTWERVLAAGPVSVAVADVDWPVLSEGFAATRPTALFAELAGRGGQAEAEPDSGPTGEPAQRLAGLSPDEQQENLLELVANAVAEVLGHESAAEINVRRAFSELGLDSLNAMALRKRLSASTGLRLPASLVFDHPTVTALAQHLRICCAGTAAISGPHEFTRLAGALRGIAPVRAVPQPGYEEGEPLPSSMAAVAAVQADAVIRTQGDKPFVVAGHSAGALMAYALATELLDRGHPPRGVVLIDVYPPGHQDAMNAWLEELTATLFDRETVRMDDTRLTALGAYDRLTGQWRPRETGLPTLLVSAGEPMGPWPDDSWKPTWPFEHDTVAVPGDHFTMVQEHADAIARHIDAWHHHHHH

B1: M2 (module 2 of DEBS with its natural C-terminal linker) (protein)
chain: MSGDNGMTEEKLRRYLKRTVTELDSVTARLREVEHRAGIAIVGMACRLPGEVDSPERLWELITSGRDSAAEVPDDRGWVPDELMASDAAGTRAHGNFMAGAGDFDAAFFGISPREALAMDPQQRQALETTWEALESAGIPPETLRGSDTGVFVGMSHQGYATGRPRPEDGVDGYLLTGNTASVASGRIAYVLGLEGPALTVDTACSSSLVALHTACGSLRDGDCGLAVAGGVSVMAGPEVFTEFSRQGALSPDGRCKPFSDEADGFGLGEGSAFVVLQRLSDARREGRRVLGVVAGSAVNQDGASNGLSAPSGVAQQRVIRRAWARAGITGADVAVVEAHGTGTRLGDPVEASALLATYGKSRGSSGPVLLGSVKSNIGHAQAAAGVAGVIKVLLGLERGVVPPMLCRGERSGLIDWSSGEIELADGVREWSPAADGVRRAGVSAFGVSGTNAHVIIAEPPEPEPVPQPRRMLPATGVVPVVLSARTGAALRAQAGRLADHLAAHPGIAPADVSWTMARARQHFEERAAVLAADTAEAVHRLRAVADGAVVPGVVTGSASDGGSVFVFPGQGAQWEGMARELLPVPVFAESIAECDAVLSEVAGFSVSEVLEPRPDAPSLERVDVVQPVLFAVMVSLARLWRACGAVPSAVIGHSQGEIAAAVVAGALSLEDGMRVVARRSRAVRAVAGRGSMLSVRGGRSDVEKLLADDSWTGRLEVAAVNGPDAVVVAGDAQAAREFLEYCEGVGIRARAIPVDYASHTAHVEPVRDELVQALAGITPRRAEVPFFSTLTGDFLDGTELDAGYWYRNLRHPVEFHSAVQALTDQGYATFIEVSPHPVLASSVQETLDDAESDAAVLGTLERDAGDADRFLTALADAHTRGVAVDWEAVLGRAGLVDLPGYPFQGKRFWLLPDRTTPRDELDGWFYRVDWTEVPRSEPAALRGRWLVVVPEGHEEDGWTVEVRSALAEAGAEPEVTRGVGGLVGDCAGVVSLLALEGDGAVQTLVLVRELDAEGIDAPLWTVTFGAVDAGSPVARPDQAKLWGLGQVASLERGPRWTGLVDLPHMPDPELRGRLTAVLAGSEDQVAVRADAVRARRLSPAHVTATSEYAVPGGTILVTGGTAGLGAEVARWLAGRGAEHLALVSRRGPDTEGVGDLTAELTRLGARVSVHACDVSSREPVRELVHGLIEQGDVVRGVVHAAGLPQQVAINDMDEAAFDEVVAAKAGGAVHLDELCSDAELFLLFSSGAGVWGSARQGAYAAGNAFLDAFARHRRGRGLPATSVAWGLWAAGGMTGDEEAVSFLRERGVRAMPVPRALAALDRVLASGETAVVVTDVDWPAFAESYTAARPRPLLDRIVTTAPSERAGEPETESLRDRLAGLPRAERTAELVRLVRTSTATVLGHDDPKAVRATTPFKELGFDSLAAVRLRNLLNAATGLRLPSTLVFDHPNASAVAGFLDGTEVRGEAPSALAGLDALEGALPEVPATEREELVQRLERMLAALRPVAQAADASGTGANPSGDDLGEAGVDELLEALGRELDGD
highest rate constant of tetraketide lactone 2 formation (mismatched linkers) [1]: in the range of 0.02-0.03 min^-1 | maximum rate constant (kcat) of tetraketide lactone 2 formation [2]: 0.0045 ± 0.00017 s⁻¹
